assay: soluble on expression in E. coli; label from the status in PepcDB or PDB records

Sequence | soluble on expression in E. coli
MSVVISGALTDGAGIPMSGYHIILKSRVNTPEVVMNTVADVMTGNDGEYCFHARTGKYGVYLKQDWRNEYNVGDIAVYEDSKPGTLNDFLIAPDEGDLKPDVVKRFEEMVAQAQQSAGAAAGNAQQTAQDVAAAAGYARAAEQAKNDIDAALTGTLKTANHLSETAAAGEKAQQKSRDNLGLKSAATMEAQSDIYDRTKGRLAIPGAFGFGCAFLPEDVIRFDTKSDFLAWVRNALPGEYSVAGPYGIIIPDTRFEGVLSIRWTDARPETTEPRYRAKSLTFYGINGPIYHTRYRYWPISRLTDWVKINITTEDIIYRIVASSVRNRWGDPDIGGLIIAAYQGEADGDKVIRLVRGQSYRGSRLGPVGISVPSTPTGTYIASPQFFITGCSEHSLPGSYCALSGVPDAHVSGAMPGLFIRTS | not soluble
MGSDKIHHHHHHMLARGKTNLKIEEIRMHKHHEIHRVKPLMPALCRIRQGKKVINWETHTLTVDNNQIILFPCGYEFYIENYPEAGLYLAEMLYLPIDLIESFQKLYTVTDQIRNKTSFFLPQNPELIYCWEQLKTSVSRGFSTKIQEHLAMGVLLSLGVNHVNHLLLSYSKQSLISRCYNLLLSEPGTKWTANKVARYLYISVSTLHRRLASEGVSFQSILDDVRLNNALSAIQTTVKPISEIARENGYKCPSRFTERFHNRFNITPREIRKASRE | not soluble
MQKEFFQELQDILYEKNITIKFHSFQNFYEDFKSHKFIFNHEHQSIFKKNTSQQITLFHPTRIRRPKFLNSTHALAKIIHSVAHIEFNAINLALDASYRFKNLPLQFYYDWLEVADEEIKHFKLLNSALEELGYKYGDFPVHDNLESALEATKDSLSFRMGIVHRGLEAKGLDANPFVVQKLQSSNHSIKNLLMEYLEIILNDEIKHVKKGDTWWKFANQNKYNFIELCKTFKQFSLAGKKLNIQARIKAGFTQEECEVIEKFYSLEHHHHHH | not soluble
MSLDARKNNVTIKVGMIGDSSIGKTSLMVTYVQGSFDEESTQTLGVNFMEKTISIRNTEITFSIWDLGGQREFVNMLPMVCNDAVAILFMFDLSRKSTLNSIKEWYRQARGFNKTAVPILIGTKYDHFMTFPREDQEEITKQARRYAKAMKASLVFCSTSHSINVQKIFKIVLAKVFDLKCTIPEIKNVGDPILEYIDREGHHHHHH | soluble
MTASFPTRVYLLRHAKAAWAAPGERDFDRGLNEAGFAEAEIIADLAADRRYRPDLILSSTAARCRQTTQAWQRAFNEGIDIVYIDEMYNARSETYLSLIAAQTEVQSVMLVGHNPTMEATLEAMIGEDLLHAALPSGFPTSGLAVLDQDDSAASGKNRWRLIDFLAPGK | soluble
MPNFFKFHTVIERHWQKPYPVLSFLLKPLSGLFAKIAAKWRADFLSGKRQSEKLSVPVVVVGNIHAGGTGKTPIAAALVSGLQEKGVKVGIISRGYGRKSKAVYVLNAASRAEDAGDEPLLLFRKTGAPTAVGSSRVEAGRALLAAHPELELIVADDGLQHYALQRDVEIAVFPAADTGRTDLDLLPNGNLREPLSRLESVDAVVVGGRAADGFMPSEHLFGSRIEAGAVYRLNRPSEKLDISTLSGKRVAAVAGIARPQRFFDTLTHMGIRLDQTVALPDHADIFNRDLPPADVVLVTEKDAVKFSDGICTDNVWVLPVCAIIEPDLAEFVLERLEGVPKAVLEHHHHHH | not soluble
MGSDKIHHHHHHMNILNIYNEFDINNFDLSVDHYGSEKCDRGYSFGPTIRDNYVIHFILEGKGKLTINQHTLDLAAGDIFLLPKDISTFYQADLQMPWSYIWIGFSGSKAENILKQSSLFKRFYCHSGRSSKLFSQMMTIIQFANTPLTSVNELLMVGELYKLLAALIEEFPLSHLEESNSSTKAYVNQVKKIIHSQYGSSLRVNDIAKKLNLSRSYLYKIFRKSTNLSIKEYILQVRMKRSQYLLENPKLSIAEISNSVGFSDSLAFSKAFKNYFGKSPSKFRKEIQNN | not soluble
MGSDKIHHHHHHMFQPPLIAFLTDFGLEDAFVGVMKGVIATICREAQVIDLTHAISAQNVRQAAFHLDRSISYFPAETIFVCVVDPGVGTARRAIGVEAGPYRFIAPDNGLLTPVFERWADAKCHELTNPAYQLANPSATFHGRDLFSPAAAHLATGVPLNAFGSAIDVANCTRIELWQNKPCDNGKVWTGEVIATDHFGNLITSFEASMLSDGEDWTVKAGNAEPLPILRTYGEVEQGKPLAYIGSSGMIEIAIRNGSASAELRVGGGDEVELRKG | not soluble
KPLQRKLASGMVKKHSIIRALNKVYKRDVYFPGEEELNEVLSDEHKSGANTWEETTELNFEPDMTTVTTEDQSAKPPEQKTPSKDVLDFTQNFLQP | not soluble

Source: the DeepSol protein solubility set
